{"source": "patent US20030023055", "key": {"[1]": {"target": "histone H1"}, "[2]": {"target": "PHAS-1"}, "[3]": {"target": "myelin basic protein"}}, "data": [{"protein": "FLAG®-tagged Atr-2 protein (73 kDa Atr-2 truncated protein encoded by pCIneoFLAGATR2) (protein) MLVAELRRVTVLWDELWLGVLLQQHMYVLRRIQQLEDEVKRVQNNNTLRKEEKIAIMREKHTALMKPIVFALEHVRSITAAPAETPHEKWFQDNYGDAIENALEKLKTPLNPAKPGSSWIPFKEIMLSLQQRAQKRASYILRLEEISPWLAAMTNTEIALPGEVSARDTVTIHSVGGTITILPTKTKPKKLLFLGSDGKSYPYLFKGLEDLHLDERIMQFLSIVNTMFATINRQETPRFHARHYSVTPLGTRSGLIQWVDGATPLFGLYKRWQQREAALQAQKAQDSYQTPQNPGIVPRPSELYYSKIGPALKTVGLSLDVSRRDWPLHVMKAVLEELMEATPPNLLAKELWSSCTTPDEWWRVTQSYARSTAVMSMVGYIIGLGDRHLDNVLIDMTTGEVVHIDYNVCFEKGKSLRVPEKVPFRMTQNIETALGVTGVEGVFRLSCEQVLHIMRRGRETLLTLLEAFVYDPLVDWTAGGEAGFAGAVYGGGGQQAESKQSKREMEREITRSLFSSRVAEIKVNWFKNRDEMLVVLPKLDGSLDEYLSLQEQLTDVEKLQGKLLEEIEFLEGAEGVDHPSHTLQHRYSEHTQLQTQQRAVQEAIQVKLNEFEQWITHYQAAFNNLEATQLASLLQEISTQMDLGPPSYVPA", "values": [{"measurement": "kinase activity (32P-ATP incorporation, P81 paper, Cerenkov radiation)", "setting": "[1]", "result": "did not phosphorylate PHAS-1 or histone H1"}, {"measurement": "kinase activity (32P-ATP incorporation, P81 paper, Cerenkov radiation)", "setting": "[2]", "result": "did not phosphorylate PHAS-1 or histone H1"}, {"measurement": "kinase activity (32P-ATP incorporation, P81 paper, Cerenkov radiation)", "result": "able to phosphorylate the Atr-2 protein itself"}, {"measurement": "kinase activity (32P-ATP incorporation, P81 paper, Cerenkov radiation)", "setting": "[3]", "result": "able to phosphorylate the Atr-2 protein itself and the exogenous myelin basic protein substrate"}]}]}
